# B1: Azoarcus group I ribozyme (parent)
# chain: GUGCCUUGCGCCGGGAAACCACGCAAGGGAUGGUGUCAAAUUCGGCGAAACCUAAGCGCCCGCCCGGGCGUAUGGCAACGCCGAGCCAAGCUUCGGCGCCUGCGCCGAUGAAGGUGUAGAGACUAGACGGCACCCACCUAAGGCAAACGCUAUGGUGAAGGCAUAGUCCAGGGAGUGGCGAAAGUCACACAAACCGG
# Variants of: B1
# Assay: reverse-splicing fitness (ratio to wild type); higher = more active; in vitro selection; Mg2+ level not given
# Procedure, shortened: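 An in vitro group I ribozyme library with randomized positions was T7-transcribed and gel-purified. In triplicate, 10 pmol RNA in EPPS pH 7.5 was reacted with 50 pmoles of a 30-nt RNA substrate for 1 h at 37 °C across several added MgCl2 levels (1–48 mM), then stopped with EDTA. Products were reverse transcribed from a substrate-complementary primer, PCR-amplified and sequenced (HiSeq 4000). Fitness is a variant's read proportion after selection over that before, normalised to wild type.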
row,Variant,reverse-splicing fitness
1,C82A A111G A120G A145G C169U,0.0111
2,C82A A111G A120G A145G C169A,0.0101
3,C82A A111G A120G C169A,0.0105
4,C82A A111G A120G C169U,0.0111
5,C82A A111G A120G C169G,0.0125
6,C82A A111G A120G A145G C150G C169G U176G,0.00614
7,C82A A111G A120G A145G C150G C169G U176C,0.0114
8,C82A A111G A120G A145G C150G C169G U176A,0.0101
9,C82A A111G A120G A145G C150G C169G,0.00754
10,C82A A111G A120G A145G C150G C169U,0.0091
11,C82A A111G A120G A145G C150G C169A,0.00897
12,C82A A111G A120G A145G C169U U176A,0.019
13,C82A A111G A120G A145G C169U U176C,0.0173
14,C82A A111G A120G A145G C169U U176G,0.00492
15,C82A A111G A120G A145G C169A U176A,0.0226
16,C82A A111G A120G A145G C169A U176C,0.0254
17,C82A A111G A120G A145G C169A U176G,0.00461
18,C82A A111G A120G A145C C150G U176G,0.00287
19,C82A A111G A120G A145C C150G U176A,0.0058
20,C82A A111G A120G A145C C150G U176C,0.0087
21,C82A A111G A120G A145U C150A C169A,0.00837

row,Variant,reverse-splicing fitness
1,C82A A111G A120G A145U C150A C169U,0.00754
2,C82A A111G A120G A145U C150A C169G,0.00871
3,C82A A111G A120C C150G C169A U176C,0.0139
4,C82A A111G A120C C150G C169A U176G,0.00791
5,C82A A111G A120C C150G C169A U176A,0.0116
6,C82A A111G A120G C150A,0.0105
7,C82A A111G A120G C150U,0.0127
8,C82A A111G A120G C150G,0.00686
9,C82A A111G A120C U176A,0.0208
10,C82A A111G A120C U176G,0.00892
11,C82A A111G A120C U176C,0.032
12,C82A A111G A120G A145G C150A,0.00972
13,C82A A111G A120G A145G C150G,0.00769
14,C82A A111G A120G A145G C150U,0.0145
15,C82A A111G A120G C150U U176A,0.0108
16,C82A A111G A120G C150U U176G,0.00781
17,C82A A111G A120G C150U U176C,0.0156
18,C82A A111G A120G A145G C150A C169U U176G,0.00673
19,C82A A111G A120G A145G C150A C169U U176C,0.0184
20,C82A A111G A120G A145G C150A C169U U176A,0.0192
21,C82A A111G A120C C169A,0.00875

row,Variant,reverse-splicing fitness
1,C82A A111G A120C C169U,0.0139
2,C82A A111G A120C C169G,0.00888
3,C82A A111G A120G A145C C169A,0.00912
4,C82A A111G A120G A145C C169G,0.0122
5,C82A A111G A120G A145C C169U,0.0103
6,C82A A111G A120G A145G C150A C169A U176C,0.0218
7,C82A A111G A120G A145G C150A C169A U176G,0.00687
8,C82A A111G A120G A145G C150A C169A U176A,0.0205
9,C82A A111G A120G A145U C150G C169U U176A,0.012
10,C82A A111G A120G A145U C150G C169U U176G,0.00483
11,C82A A111G A120G A145U C150G C169U U176C,0.0132
12,C82A A111G A120G A145U C169G U176A,0.0122
13,C82A A111G A120G A145U C169G U176C,0.0158
14,C82A A111G A120G A145U C169G U176G,0.00452
15,C82A A111G A120G A145C C169U U176A,0.0193
16,C82A A111G A120G A145C C169U U176C,0.0129
17,C82A A111G A120G A145C C169U U176G,0.00388
18,C82A A111G A120G C150G C169G,0.00739
19,C82A A111G A120G C150G C169A,0.00929
20,C82A A111G A120G C150G C169U,0.00856
21,C82A A111G A120C C169U U176A,0.016

row,Variant,reverse-splicing fitness
1,C82A A111G A120C C169U U176C,0.0138
2,C82A A111G A120C C169U U176G,0.00535
3,C82A A111G A120G A145G C150A C169G U176G,0.00592
4,C82A A111G A120G A145G C150A C169G U176A,0.0194
5,C82A A111G A120G A145G C150A C169G U176C,0.0239
6,C82A A111G A120G A145G C150U U176A,0.00945
7,C82A A111G A120G A145G C150U U176C,0.0182
8,C82A A111G A120G A145G C150U U176G,0.00788
9,C82A A111G A120C A145U C169A U176G,0.00526
10,C82A A111G A120C A145U C169A U176C,0.0152
11,C82A A111G A120C A145U C169A U176A,0.0138
12,C82A A111G A120C C150U U176A,0.0143
13,C82A A111G A120C C150U U176C,0.0238
14,C82A A111G A120C C150U U176G,0.01
15,C82A A111G A120G A145G C150G U176A,0.00684
16,C82A A111G A120G A145G C150G U176G,0.00568
17,C82A A111G A120G A145G C150G U176C,0.00999
18,C82A A111G A120G A145U C150U U176G,0.00595
19,C82A A111G A120G A145U C150U U176C,0.014
20,C82A A111G A120G A145U C150U U176A,0.00996
21,C82A A111G A120G C150G C169A U176G,0.00672

# Reference: the RNAGym collection of RNA variant scans (doi:10.1093/molbev/msab373)
